The series can be described thus: protein stability index of a GFP-peptide fusion (GPS, HEK-293T) (PSI 1-6); higher = more stable.
[1] abbreviates: treatment: DMSO, c terminus: a fixed tail appended.
Where [2] appears, read: treatment: MLN4924 1 uM, 8 h, c terminus: a fixed tail appended.
[3] abbreviates: treatment: DMSO, c terminus: native.
Setting [4] is: treatment: MLN4924 1 uM, 8 h, c terminus: native.

± gives the standard deviation.
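Further: 24-mer peptide tiles fused after GFP, lentivirally expressed, FACS-sorted into six equal bins by GFP/DsRed ratio, decoded by Illumina sequencing, PSI is the read-weighted mean bin number.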

For the sequence RRKEEEVQQQKLAEERRRQNLQEE [FAF2], the protein stability index is, setting by setting: under setting [1], 5.56 ± 0.18; under setting [2], 5.45 ± 0.37.
The matching figures for RRKPDPPKDENERSTCNVVQDEFL [DLC1]: 5.27 ± 0.1 and 5.33 ± 0.13.
RRPRRVEAERPHSLIGVIRETVL [FAM189A2] displayed a protein stability index under setting [3] of 3.39 ± 0.12 and a protein stability index under setting [4] of 3.42 ± 0.22.
On to RRSPRPDHPGTPPHKTFRKLRLFD [WEE1], for which the protein stability index was found to be 3.4 ± 0.078 under setting [1] and 3.71 ± 0.34 under setting [2].
The matching figures for RRTLQGLEIELQSQLSMKAGLENT [KRT13]: 3.4 ± 0.24 and 3.34 ± 0.37.
The matching figures for RRVLPCIPSEEWPNPPTLQEAGLS [FAF2]: 3.9 ± 0.38 and 3.79 ± 0.18.
Consider RSHSREPRAERKCPRIAPADSGRY [ELOA2], for which the protein stability index by setting is: under setting [1], 4.093 ± 0.032; under setting [2], 4.25 ± 0.47.
As to RSLLGYDPQILQMLKEEHQIILEN [RAD54B], the protein stability index under setting [1] was 2.94 ± 0.19 and the protein stability index under setting [2] was determined as 3.11 ± 0.21.
The matching figures for RSSVSRVFDCLKDGMRNKETLEGR [MED27]: 4.27 ± 0.34 and 4.38 ± 0.47.
With RTRPRKPIRCGEVLFAVGGWCSGD [KLHL20], the protein stability index under setting [1] was determined as 2.39 ± 0.28 and the protein stability index under setting [2] amounted to 2.17 ± 0.33.
The matching figures for RTRRRLSRNRDPGRLILSTIRLRP [PWWP2B]: 4.41 ± 0.45 and 4.32 ± 0.21.
The matching figures for RTYFHEFGHVMHQICAQVSFFFPP [NLN]: 2.43 ± 0.43 and 3.41 ± 0.054.
The matching figures for RVLDGKEAKAVGLISHVLEQNQEG [AUH]: 4.53 ± 0.38 and 4.95 ± 0.088.
As to RVPSFESFEDDCSQSLCLNKPTMS [ETS2], the protein stability index is, setting by setting: under setting [1], 4.6 ± 0.16; under setting [2], 4.55 ± 0.16.
The matching figures for SAASVYAGAGGSGSRISVSRSTSF [KRT18]: 3.66 ± 0.066 and 3.59 ± 0.28.
As to SAEINQDLNIQLLKDGYRLDEIPD [FAM219A], the protein stability index by setting is: under setting [1], 4.91 ± 0.062; under setting [2], 5.08 ± 0.18.
The matching figures for SARCVVSFNILVEDRVKLFGIEIE [PCDHGA10]: 2.12 ± 0.68 and 1.95 ± 0.27.
The matching figures for SARFWIPGEPNNAGNNEHCGNIKA [CD207]: 4.03 ± 0.47 and 4.18 ± 0.41.
Turning to SCHGYTLPGACNIPANVSNCNWFC [KRT33B], the protein stability index runs as follows: under setting [1], 2.53 ± 0.52; under setting [2], 2.42 ± 0.5.
The matching figures for SDAWTYCISKNEWIQFNHPYTEKP [KLHDC2]: 2.34 ± 0.18 and 2.37 ± 0.26.
The matching figures for SDSLLQSWNSQSSLLDVQRVPSFE [ETS2]: 3.92 ± 0.3 and 3.76 ± 0.17.
The matching figures for SEAKSHSSADDASAWSNIQEAPLQ [FAN1]: 5.29 ± 0.31 and 5.04 ± 0.46.
Turning to SEEGSWAQTLAYGDMNHEWIGNEW [PPFIA4], the protein stability index runs as follows: under setting [1], 3.89 ± 0.41; under setting [2], 3.8 ± 0.28.
SEGEAMEICSEPVAASPAPAGERR [ZNF511]: the protein stability index runs as follows: under setting [1], 5.38 ± 0.28; under setting [2], 5.22 ± 0.27.
The matching figures for SEGRRVSFGVDEEERVRVLQGVRL [CHCHD6]: 4.38 ± 0.19 and 4.38 ± 0.3.
Take SELQREMEALAAETNLLLAQKQRL [TEKT4]: the protein stability index runs as follows: under setting [1], 4 ± 0.53; under setting [2], 4.2 ± 0.13.
The matching figures for SENKIVGIGYNGMPNGCSDDVLPW [DCTD]: 3.46 ± 0.35 and 3.56 ± 0.15.
Consider SESSPSDFSVSLKASGKNKHFKVQ [NCK2], for which the protein stability index is, setting by setting: under setting [1], 4.39 ± 0.18; under setting [2], 4.33 ± 0.17.
Turning to SEVSFEGAYGNLKRLYDKAAKMYH [SMG5], the protein stability index reads like this: under setting [1], 2.44 ± 0.29; under setting [2], 2.23 ± 0.29.
As to SFFLQIYLIMIFLGLYINFRHLYK [HACD3], the protein stability index amounted to 2.79 ± 0.2 under setting [1] and 2.52 ± 0.041 under setting [2].
The matching figures for SFRENWQRAWVRALNEQACRNGSS [C2CD2L]: 2.7 ± 0.24 and 2.45 ± 0.49.
Regarding SGGELFDFLAEKESLTEDEATQFL [DAPK3], the protein stability index runs as follows: under setting [1], 4.84 ± 0.19; under setting [2], 4.96 ± 0.47.
The matching figures for SGISFPSVVDHPMPEERASKYENY [HESX1]: 4.25 ± 0.32 and 4.22 ± 0.3.
The matching figures for SGPQPRLPPCLLPLSPPTAPDRAT [TRIB3]: 4.48 ± 0.27 and 4.61 ± 0.28.
Regarding SGSQRHMVGQKDSVILSVKFSPFG [TLE6], the protein stability index by setting is: under setting [1], 2.2 ± 0.27; under setting [2], 2.49 ± 0.22.
The matching figures for SHCDSPSPQEDGQIMFDVEMHTSR [BNIP3L]: 4.79 ± 0.31 and 4.8 ± 0.38.
For SHQNLRVDDLSVEWDAMGGKVQDI [FSD1], the protein stability index worked out at 4.49 ± 0.19 under setting [1] and 4.47 ± 0.28 under setting [2].
The matching figures for SHRAAGSGVSDYDYLDLDKMSLYS [TRIM9]: 3.4 ± 0.21 and 3.44 ± 0.17.
Sequence SIGIDNLGLKLEENLQETHSAVL [SLC35F2] gave a protein stability index under setting [3] of 4.34 ± 0.31 and a protein stability index under setting [4] of 4.53 ± 0.19.
The matching figures for SIIILLELAILGGLVYYKFFRSH [VTI1B]: 2.78 ± 0.27 and 2.63 ± 0.45.
For SITEMFGEFRTGKTQICHTLAVTC [RAD51], the protein stability index reads like this: under setting [1], 2.59 ± 0.33; under setting [2], 2.05 ± 0.48.
The matching figures for SKIGFGILLSKEPDGVWAYNRGEH [SMAD6]: 2.43 ± 0.25 and 2.71 ± 0.15.
The matching figures for SKLKGAAVKLADFGLAIEVEGEQQ [CAMK2A]: 4.06 ± 0.11 and 4.4 ± 0.31.
Turning to SKQTEKDPGVQELEALIDTIQKQL [EFHC1], the protein stability index runs as follows: under setting [1], 3.83 ± 0.28; under setting [2], 3.86 ± 0.3.
The matching figures for SKTVTSTMLGVFREDPKTREEFLT [GCH1]: 4.12 ± 0.1 and 4.11 ± 0.24.
The matching figures for SKYADLSDAANRNHEALRQAKQEM [PRPH]: 4.77 ± 0.064 and 4.89 ± 0.14.
The matching figures for SKYCYGPQGSRSPYIPPHAALCLE [FKBP8]: 2.46 ± 0.54 and 2.74 ± 0.3.
As to SLCKVFGAHKDCQVAPLTHVFQRQ [TRIM55], the protein stability index stood at 2.41 ± 0.35 under setting [1] and 2.66 ± 0.2 under setting [2].
The matching figures for SLIGHLQTLSPDMQGAYCTFPASV [DUSP5]: 2.07 ± 0.35 and 2.2 ± 0.38.
The matching figures for SLKDHKVSFLRSGTKLIFRRRPRQ [C2CD2L]: 3.24 ± 0.49 and 3.44 ± 0.55.
The matching figures for SLSVRHRQVKHYRIFRLPNNWYYI [SLA]: 2.29 ± 0.7 and 2.58 ± 0.49.
Take SLTDDKYDVAMNRAKDLVELDPEV [GOLPH3L]: the protein stability index is 5.37 ± 0.16 under setting [1] and 5.4 ± 0.26 under setting [2].
The matching figures for SLVAPLLLELAGEVTDTGDPIVRP [MYORG]: 3.23 ± 0.33 and 3.3 ± 0.23.
The matching figures for SLVYYGLTLSAGDLGGSIYANLAL [SLC22A15]: 3.02 ± 0.6 and 2.91 ± 0.45.
As to SMLPPVNFSIVPYEKKFDTFIPLE [SPATS1], the protein stability index amounted to 2.6 ± 0.26 under setting [1] and 2.49 ± 0.1 under setting [2].
The matching figures for SNADQLMENIGAIQVLPKLSSSII [KCNAB2]: 3.21 ± 0.38 and 3.23 ± 0.29.
Sequence SNGSMHNYCPQQTKITSAFKYINT [EDNRA] came in with a protein stability index under setting [1] of 2.36 ± 0.35 and a protein stability index under setting [2] of 2.6 ± 0.26.
The matching figures for SNYSLPPPLPTYHVLLEGEGLGQS [TRIM29]: 3.67 ± 0.23 and 3.68 ± 0.22.
The matching figures for SPEKFQIEANFPRRVLPCIPSEEW [FAF2]: 3.75 ± 0.12 and 3.79 ± 0.29.
The matching figures for SPESSRGQCGENLAWASYDQTGKE [GLIPR2]: 4.8 ± 0.21 and 4.73 ± 0.27.
In turn, SPINMEDQERIKVERKRLRNRLAA [JUNB] displayed a protein stability index under setting [1] of 4.48 ± 0.55 and a protein stability index under setting [2] of 4.65 ± 0.087.
For SPSENSKEAEILEVLRHPRDWVR [CPOX], the protein stability index runs as follows: under setting [3], 4.42 ± 0.15; under setting [4], 4.53 ± 0.26.
On to SPSNVQKWLLWTEHQYRLPPMGKA [SPDEF], for which the protein stability index runs as follows: under setting [1], 2.42 ± 0.2; under setting [2], 2.61 ± 0.19.
The matching figures for SPTIIFDNWIPLLWCANILGYAVS [DHCR7]: 3.36 ± 0.13 and 3.48 ± 0.42.
The matching figures for SQDERLDVLLTLKHTVKEHECKLT [IQUB]: 3.41 ± 0.3 and 3.41 ± 0.16.
The matching figures for SQFKILVSLLENNIYVHDLLTFQQ [VPS39]: 3.02 ± 0.29 and 3.21 ± 0.6.
On to SQKNEKALTNIQNCMAEKRETVLI [C8orf76], for which the protein stability index turned out to be 3.54 ± 0.29 under setting [1] and 3.69 ± 0.19 under setting [2].
For the sequence SQLAGQVNVEMDAAPGVDLTRVLA [KRT15], the protein stability index by setting is: under setting [1], 4 ± 0.18; under setting [2], 3.94 ± 0.057.
The matching figures for SQMFPSSKARTKSLLGDDVFSTMA [FBF1]: 2.89 ± 0.26 and 2.97 ± 0.21.
The matching figures for SRLMRRHKRRRRKQKVSRIERSSS [DVL3]: 4.46 ± 0.27 and 4.43 ± 0.09.
As to SRLNLTGLGYFSCHSHTVVQDYSY [CCDC3], the protein stability index reads like this: under setting [1], 2.12 ± 0.37; under setting [2], 2.18 ± 0.11.
The matching figures for SRRDDLEALGHMFMYFLRGSLPWQ [CSNK1G1]: 3.48 ± 0.54 and 3.15 ± 0.86.
